1 molecule from PMC9867944 (2023) can be followed below.

In this assay the target is human PD-1 protein (Acro biosystems) (human, UniProt Q15116 25-170). The assay is described as follows: SPR. On the technique in general: Surface plasmon resonance follows binding to a sensor surface in real time, without labels.
Sequence of human PD-1 protein (Acro biosystems) (Q15116 25-170): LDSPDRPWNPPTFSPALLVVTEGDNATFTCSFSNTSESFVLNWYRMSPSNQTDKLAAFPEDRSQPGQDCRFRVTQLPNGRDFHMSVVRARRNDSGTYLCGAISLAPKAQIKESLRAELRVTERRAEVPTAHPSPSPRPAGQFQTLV

B1: anti-PD-1 Nb C12-Fc (Fc fusion)
chain: QVQLQELGETRCRHGGSLRLSCKVSGYTQRSYCLGWLRQAPGNEREAVAVLQHSGNFRHYADSVQGRFVISQDYTDNTVYLAMNNLKSEDAAMYYCAAVGLRVSQFNYWGQGTQVTVSS
By koff is commonly meant the rate constant with which the complex falls apart. Regarding B1, the koff came out at 0.00178 s⁻¹.
